Assay results from the DeepSol protein solubility set.

Assay: soluble on expression in E. coli; label from the status in PepcDB or PDB records

| Sequence | soluble on expression in E. coli |
| --- | --- |
| MDKAIIDIYYCRQCNWMLRSTWLSQELLHTFSEEIDTISLHPDTGGRFEIFCNGQQIWERKKDGGFPEAKVLKQRVRDIIDPERDLGHSDTKLEHHHHHH | soluble |
| NKSDAAAKQIKKLEEDFDGRIGVFAIDTGSGNTFGYRSDERFPLCSSFKGFLAAAVLERVQQKKLDINQKVKYESRDLEYHSPITTKYKGSGMTLGDMASAALQYSDNGATNIIMERFLGGPEGMTKFMRSIGDNEFRLDRWELELNTAIPGDKRDTSTPKAVANSLNKLALGNVLNAKVKAIYQNWLKGNTTGDARIRASVPADWVVGDKTGSCGAYGTANDYAVIWPKNRAPLIVSIYTTRKSKDDKHSDKTIAEASRIAIQAID | soluble |
| MGSSHHHHHHSSGLVPRGSHMATADPYDALRRRWLGITLGTGYDPAAEPYASRLAETGERAREHRATMAPTPTSLWPGHPFDPPAGITFAYGRLWTMTEAYVQEGTGATGDPALLADILRGLDHLSATVYHPATTRYGNWWEWQIGSPRLLMDITAALYDHLGADRVAAACAAVDHFVPDAMLGAYTGTSTGANRVDLCRSVALRGVLGRAPAKIALARDALSPVFPYVTKGDGLYADGSFVQHTWVAYSGTYGQVMLDGLGRLFTLLAGSEWEVTDPGRQLVLDSVEHAYAPLIHDGLVMDTVNGRAISRGYLKSDDLHVMRSDHFHGQQLIAAMAVLAGGASNAERERWHARIKGWIERDTVTPVLTAPQFPVADLTRLHAIADAPGEAAPEPVGHHLFAAMDRAVHRRPAFTAGLAMASDRIAHYECGNGENPRGWHTGAGMLTWWANGTRADQYTDWFWPTVDWYRLPGTTVSTKRLADRAGGEWGAPKPDVRWVGGATDGEYAAVGQHLKGLGSTLEARKSWFFLDDAVVCLGAGITCADGVPVETVVDNRNLGEGGTQALVRGRHWAHLEGHGGWIVPGGALRTLREDRTGAWSDINTTSTTERRTRRWQTLWLDHGTDPAGADYVYTVMPGASRAALARRAADRHWLTVLANDDRRQAVSVPSLGLTAANFWQAGTAGPLTTTAGASVLVRRRGRTATLRVSEPPRTGEALEIVWDHPVGAVLRADETVEILATGRRLHLRVTPGVVCTTHECEVTLS | soluble |
| MAHHHHHHMMSQSLNALRSGTACFPTTIAQQRRWITRLYTSYYPGVLYPNQLVQHKQRLPPGVSLSTALKARTQTRQEQSVAGREVPEENETRGVSWTDASSTDVMHTGNARRQEKVSVATGRSYVPLGEVAKLELQGDYCMEGGLFQEALERYGVVAKAYSIAYPENHSQRIGILLKLASAFRHVGRLDSSKVNIENALKMLDASSRPSLELICEALLELGLTREAKSMKNEGAEAYEEAVEVLNLFHNWGESHRMLRLLPRLGRRFNLNFEEKFVYFSPFDYDRTFAIADQCMERAEKVYRETGDSNGIIRVLQCRKEMIDKKFFNLRDFAGRIHTMRGHWMRRAQHLTNAPTPDELLRYTPTIHQVYRDFKYELTAPIGREKEVMPGVNRVVLDMGNPYRRRGRLSNKMLRDADHNFANYVRREEYNA | not soluble |
| MNVTIYDVAREASVSMATVSRVVNGNPNVKPSTRKKVLETIERLGYRPNAVARGLASKKTTTVGVIIPDISNIFYAELARGIEDIASMYKYNIILSNSDQNQDKQLHLLNNMLGKQVDGIIFMSGNVTEEHVEELKKSPVPVVLAASIESTNQIPSVTIDYEQAAFDAVQSLIDSGHKNIAFVSGTLEEPINHAKKVKGYKRALTESGLPVRDSYIVEGDYTYDSGIEAVEKLLEEDEKPTAIFVGTDEMALGVIHGAQDRGLNVPNDLEIIGFDNTRLSTMVRPQLTSVVQPMYDIGAVAMRLLTKYMNKETVDSSIVELPHRIEFRQSTK | soluble |
| MIAARQVSKPIADAVLRYGKDHPVFRNKLLLPIGRGLVRFTSRLRMKRLGLGEPISQAPISESAALEQASDFVQQLVLFSYSVGVFAGYYFYTKMTTPESLKIEDYEEFKQQQERAIKELRLQVESLEQRLAAQQKRNFFSQLGFSKENGDESPPKPSQQAPPPEKPSEEKKPATESLKQRFQRISSLPIDAAASLILDDEEYLVVRRGSSVGIELSVNFAARGDRLRYRIPSPKLRESCAQMALKEAACHVIGAKDRSRFRYVNS | not soluble |
| MGNAGESKKSNSDSAKGEEKASGSLTISGSSAMQPLVLAAAEKFMEENPDADIQVQAGGSGTGLSQVSEGAVQIGNSDVFAEEKEGIDAKALVDHQVAVVGMAAAVNPDAGVKDISKDELKKIFTGKIKNWKELGGKDQKITLVNRPDSSGTRATFVKYALDGAEPAEGITEDSSNTVKKIIADTPGAIGYLAFSYLTDDKVTALSIDGVKPEAKNVATGEYPIWAYQHSYTKGEATGLAKEFLDYLKSEDIQKSIVTDQGYIPVTDMKVTRDANGKQSLEHHHHHH | not soluble |
| MNLTHQDFNLFNREIFTFKQLKEQQTSAEIDALKQTYKQHWEKWKALNLAIAQGLPAELGITKPKIESWTNGWNLRSHFWAAYRSEQRQAENACLALLLNKKQFQVYLMFQHYKSEERTGSVVAYNQLLNRLEAWSQTIDCEGYYIWPQEEHELVDHLPLKDYLADEKQRKILEERIGNRSFQIGKLWFATEKLETIEEKSCQALQELAPLYNALSEK | not soluble |
| KYRHEYYQKPEEVVVTVFAKGIPKQNVNIDFGEQILSVVIEVPGEDAYYLQPRLFGKIIPDKCKYEVLSTKIEICLAKADIITWASLEHG | soluble |
| MGSDKIHHHHHHMKTRDKIIQASIELFNEQGERNVTTNHIAAHLAISPGNLYYHFRNKEDIILSIYEEYARSLLLETLPKVSSEVKPLDSLILYMDSVFQTTMKFRFFYSNLPVLLDKNPILREKYVEVQQSISERVSQLLISLRAADYIDFNDDELADIVSILRLINTFWVSFHQTQTIVNEVNDSVFYQGVLKILVILRPYTKAHAISELNHARDVYQQRYREEAETA | not soluble |
| MSLVEMVNRPYASAFEAFAVKNPDVLCLSADLTSSCEIDGFRDRHPDQFLSLGMAEQNMMSFAGGLGLAGYRPFLHSFGVFLYRRPYDQLMASVAYPRRKVRLMGFLPGITTPGGMTHQAIEDVAVMRSIPNMSILETGDATEVESICEAADSIDGPVYCRVLRGSIPRLFDTPIRVGEMRELALGADVLVVTSGIATEEALRARDALSNAGVSIRHLHIHTIKPFNEQALLDHIGSVSKGVVVLENHVITGGVGSLVAEIMADNGVGKPLVRLGLNDTYAHGGSRGYLMKHYGLDAGALVRGIERIIGASTGIDEEALASARVDAVHSAVKAEAEGHHHHHH | not soluble |
| GPGSMPNPLVRLGKELKEATEHPDPDIHLELYDPTKGSDGSRSSQGAALQPSQQQPGLYTWLAILKGPPDTPFAGGSYRLVLSIPHEYPLVPPKAAFITKVFHPNVEFNTGNVCLDILKKRWSPVWTLSSVCRAILNLLAEPESDSPFNCDAGNLLRAGDMEGYASLVRYYAITDAGAPPFADNEE | not soluble |
| MDVKHNPKKEVIERSLNATEKAIESIREGDLVRRHTVLELRDMQISMSEDFDQIRGMMHELDHQIDKERAENSKWMNRKMEKAKATADQALASTLMVKDVQLLEKKVNILKDSVIQVNKAFYKYEKDVDMKDLMDQVTDMVHRTEKKEQDALEPHATDEQAIEKAFRGAIEGLYGLKSSNPKVMEEAKLLAGEMRVFRDAAANKNFHSMISKVAPGKSGVSLDSSSSESSFSTSASSSLAKPNGKSSSSAASSISGSH | not soluble |
| GMEFYEVIKKRKSIKKFEQTAIDRDKLLKIIDMAMRAPSWKNKTPYKFIVVESDKLKLDIANAIENKTSAASEAVLNSPMTIVAVANPEESGDVSGKEIYLIDTAIAMEHIVLGATDEGYGTCWIAAFNENKIKEALKIPDNLRVVALTPLGVPKDSAEDEPHHPKKDMDEYLYIDKWGTSFMESNVKILEKN | soluble |
| MDAVNKFSVENWYPHLRKHTFKSHFITLNYNDIHYLMGNIPPDYDSSKLESIFNKILSEFNNKEVFMRLSTRSPKDSKFLFEEASTIMSKDFVYWNENDNKHQQLVSFVASMLKAMKIKSGRKIIETIAQSPRVYNDLLALVSSSNQSDCTTNVILREWHDIRPDHEFRVFVSRRHRKESIVTAISQYFHFLYFDKSPADCFNFLDEEDKKAVIKKFENYVLKSVDPDVAKFLNFSSEQDDDESSDCIREYIVDLALIPVSQYHGEITDENIIEIGANTYVMVVIELNPFAPAATGSGLFNWKNDLMMLWGKASCDYPVFKYRTTPREDLQSVSLLPSNYESVIKSALIKRLETLEHHHHHH | not soluble |
| MGFIMEFAENLVLRLMENPEERDRKAREHIYEMHERCKKIKEMWALPIRPYGFWTFERHNAQLRWDPQISQVAGRRDPYDDLLEDNYTPPSSSSSSSD | soluble |
| MGSDKIHHHHHHMHYLPFIRVVMNTADEDAQMERDEWASREVMPITNWGRRPDGSEIVQYDAPMFFSFTEHSLLHQYPHMRAECHWHVDLELTYIIHGHMWYFVNGETVRLDEGQAIFVNSRQLHYGFTKDGSDCEFSCTLLNPAKMCASFEVYDRFIAPLMAENTMPYAVITDDTAPGRRLLATIRQLHAAKFGPLERSERSAEPLPADDMTLTDNTEALTVLSCFYAVVRDILAIAGSHCATSTAPHPRIVTLRKMIDYVQRYYVRPITLKQIASAGSVGRTTCASIFRESLNQSPIEFVNDVRVRAAANLLVTSSLPIATVAKQTGFSSASFFSRTFHRFMGVTPITYRTTHTKRKSEE | not soluble |
| MKKITINDLMKWKQEGRKFATSTAYDASFAQLFESQEMPVLLVGDSLGMVLQGETDTLPVTVDDIAYHTRCVRKGSPNCLLMADMPFMSYATPEQACENAAKLVRAGANMVKIEGGDWLVDTVKMLTERAVPVCAHLGLTPQSVNIFGGYKVQGREQDKADRMVRDALALQEAGAQIVLLECVPAELANRITQILDVPVIGIGAGNGTDGQILVMHDMFGISANYMPKFSKNFLAETGDIRQAVAKYIEDVASGAFPDLAHTIALEHHHHHH | soluble |
| MRKLSKRLLGTVHVATSSTPPGSPFSLVNRQFLLLPTMDKLMGEICREKQIVDRCKMSIDRKEPYDLISMKQQIEISLSKITAMKMRLFHMQNNSETHNSPCSINQQILNTQLLCHGARKVRESLRKDESPNEKVLRETEQTILVLNEKLDLLSNCCSQKESSLTPISVRRSRGGPSKTNNFPVAVSGFLKIRVTGLADLPNNTKHRSGRYASEHFAQLIKKKKSMFGRHGFRRYPNRSSAVNDYIIVIHVGGKEVATMVWNEKKTMVGGDEETIQLFKSRQLDFEIYHTDSRSLCAIGSMQLESLLDEHDAKFPFATFAHRVVNLIPEGTLHFQTTYSDPEQSMEKKLGDTCTDGVSKLAVSMRKSGSVLARGSKTFYSPRTAISLNQFVPLTPSMKSRTRRIDSLDSYRLISEIGVGAFGTVKLGTKDP | not soluble |
| AAWLQRKQFVSAGQEVAARLNTLGAELTQSRNDMREALALAQAQSGKVAELEGKVREAQSQYSALQQALQNLNDGASDEMLANDIERLITIASQQLRLAGNVSNAIVALETAQARLARADRPRFASLQQSINGDLDRLRAVGVVDIAAQSARIDRLVALVGRAPLLVPDAAAPGVTAVPQANEAVPASVDPGADLPADAAWWQRWQAEIASWPGRAGSALAHELGDLIRVQRVDQPTALLLSPEQAGQLRSTLRQRLLTAQLSMLMRQPAVWKSELDAVAATLAQYFDGKAPDTVAALALARELGQVEIAVRVPDVADSLNGIAALRAAGFNADG | not soluble |
